Columns and labels:
[1] = molecular target: wild type Mfn2 with a C-terminal 3xFLAG tag (UniProt Q80U63); test: native gel or EMSA
[2] = molecular target: the molecule itself; test: native gel or EMSA

wild type Mfn2 with a C-terminal 3xFLAG tag (from UniProt Q80U63 1-757) (natural protein), sequence (Q80U63 whole entry): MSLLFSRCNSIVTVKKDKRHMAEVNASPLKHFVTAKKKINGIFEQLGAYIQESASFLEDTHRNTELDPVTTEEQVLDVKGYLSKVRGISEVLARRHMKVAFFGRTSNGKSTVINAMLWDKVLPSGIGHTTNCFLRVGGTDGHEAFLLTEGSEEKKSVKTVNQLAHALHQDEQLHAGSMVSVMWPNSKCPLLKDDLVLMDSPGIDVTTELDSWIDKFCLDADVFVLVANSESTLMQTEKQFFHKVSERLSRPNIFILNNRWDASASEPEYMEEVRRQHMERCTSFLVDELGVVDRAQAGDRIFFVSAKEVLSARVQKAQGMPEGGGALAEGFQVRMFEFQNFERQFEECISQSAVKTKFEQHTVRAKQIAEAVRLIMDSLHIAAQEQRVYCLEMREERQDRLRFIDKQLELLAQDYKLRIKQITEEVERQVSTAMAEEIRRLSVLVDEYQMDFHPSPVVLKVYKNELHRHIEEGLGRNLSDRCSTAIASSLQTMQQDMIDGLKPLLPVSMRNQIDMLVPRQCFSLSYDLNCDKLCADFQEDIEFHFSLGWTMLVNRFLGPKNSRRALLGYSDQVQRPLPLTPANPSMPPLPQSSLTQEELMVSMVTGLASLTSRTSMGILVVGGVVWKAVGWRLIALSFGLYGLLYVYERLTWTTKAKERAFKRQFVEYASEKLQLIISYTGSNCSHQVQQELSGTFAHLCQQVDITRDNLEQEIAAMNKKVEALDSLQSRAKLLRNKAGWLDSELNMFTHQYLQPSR

Molecule	stoichiometry N [1]	stoichiometry N [2]
wild type Mfn2 with a C-terminal 3xFLAG tag (from UniProt Q80U63 1-757) (natural protein)	2	
Mfn2^S378P with a C-terminal 3xFLAG tag (natural protein, UniProt Q80U63 1-757, looked up) MSLLFSRCNSIVTVKKDKRHMAEVNASPLKHFVTAKKKINGIFEQLGAYIQESASFLEDTHRNTELDPVTTEEQVLDVKGYLSKVRGISEVLARRHMKVAFFGRTSNGKSTVINAMLWDKVLPSGIGHTTNCFLRVGGTDGHEAFLLTEGSEEKKSVKTVNQLAHALHQDEQLHAGSMVSVMWPNSKCPLLKDDLVLMDSPGIDVTTELDSWIDKFCLDADVFVLVANSESTLMQTEKQFFHKVSERLSRPNIFILNNRWDASASEPEYMEEVRRQHMERCTSFLVDELGVVDRAQAGDRIFFVSAKEVLSARVQKAQGMPEGGGALAEGFQVRMFEFQNFERQFEECISQSAVKTKFEQHTVRAKQIAEAVRLIMDPLHIAAQEQRVYCLEMREERQDRLRFIDKQLELLAQDYKLRIKQITEEVERQVSTAMAEEIRRLSVLVDEYQMDFHPSPVVLKVYKNELHRHIEEGLGRNLSDRCSTAIASSLQTMQQDMIDGLKPLLPVSMRNQIDMLVPRQCFSLSYDLNCDKLCADFQEDIEFHFSLGWTMLVNRFLGPKNSRRALLGYSDQVQRPLPLTPANPSMPPLPQSSLTQEELMVSMVTGLASLTSRTSMGILVVGGVVWKAVGWRLIALSFGLYGLLYVYERLTWTTKAKERAFKRQFVEYASEKLQLIISYTGSNCSHQVQQELSGTFAHLCQQVDITRDNLEQEIAAMNKKVEALDSLQSRAKLLRNKAGWLDSELNMFTHQYLQPSR		2
Mfn2^A383V with a C-terminal 3xFLAG tag (natural protein, UniProt Q80U63 1-757, looked up) MSLLFSRCNSIVTVKKDKRHMAEVNASPLKHFVTAKKKINGIFEQLGAYIQESASFLEDTHRNTELDPVTTEEQVLDVKGYLSKVRGISEVLARRHMKVAFFGRTSNGKSTVINAMLWDKVLPSGIGHTTNCFLRVGGTDGHEAFLLTEGSEEKKSVKTVNQLAHALHQDEQLHAGSMVSVMWPNSKCPLLKDDLVLMDSPGIDVTTELDSWIDKFCLDADVFVLVANSESTLMQTEKQFFHKVSERLSRPNIFILNNRWDASASEPEYMEEVRRQHMERCTSFLVDELGVVDRAQAGDRIFFVSAKEVLSARVQKAQGMPEGGGALAEGFQVRMFEFQNFERQFEECISQSAVKTKFEQHTVRAKQIAEAVRLIMDSLHIAVQEQRVYCLEMREERQDRLRFIDKQLELLAQDYKLRIKQITEEVERQVSTAMAEEIRRLSVLVDEYQMDFHPSPVVLKVYKNELHRHIEEGLGRNLSDRCSTAIASSLQTMQQDMIDGLKPLLPVSMRNQIDMLVPRQCFSLSYDLNCDKLCADFQEDIEFHFSLGWTMLVNRFLGPKNSRRALLGYSDQVQRPLPLTPANPSMPPLPQSSLTQEELMVSMVTGLASLTSRTSMGILVVGGVVWKAVGWRLIALSFGLYGLLYVYERLTWTTKAKERAFKRQFVEYASEKLQLIISYTGSNCSHQVQQELSGTFAHLCQQVDITRDNLEQEIAAMNKKVEALDSLQSRAKLLRNKAGWLDSELNMFTHQYLQPSR		2
Mfn2^Q386P with a C-terminal 3xFLAG tag (natural protein, UniProt Q80U63 1-757, looked up) MSLLFSRCNSIVTVKKDKRHMAEVNASPLKHFVTAKKKINGIFEQLGAYIQESASFLEDTHRNTELDPVTTEEQVLDVKGYLSKVRGISEVLARRHMKVAFFGRTSNGKSTVINAMLWDKVLPSGIGHTTNCFLRVGGTDGHEAFLLTEGSEEKKSVKTVNQLAHALHQDEQLHAGSMVSVMWPNSKCPLLKDDLVLMDSPGIDVTTELDSWIDKFCLDADVFVLVANSESTLMQTEKQFFHKVSERLSRPNIFILNNRWDASASEPEYMEEVRRQHMERCTSFLVDELGVVDRAQAGDRIFFVSAKEVLSARVQKAQGMPEGGGALAEGFQVRMFEFQNFERQFEECISQSAVKTKFEQHTVRAKQIAEAVRLIMDSLHIAAQEPRVYCLEMREERQDRLRFIDKQLELLAQDYKLRIKQITEEVERQVSTAMAEEIRRLSVLVDEYQMDFHPSPVVLKVYKNELHRHIEEGLGRNLSDRCSTAIASSLQTMQQDMIDGLKPLLPVSMRNQIDMLVPRQCFSLSYDLNCDKLCADFQEDIEFHFSLGWTMLVNRFLGPKNSRRALLGYSDQVQRPLPLTPANPSMPPLPQSSLTQEELMVSMVTGLASLTSRTSMGILVVGGVVWKAVGWRLIALSFGLYGLLYVYERLTWTTKAKERAFKRQFVEYASEKLQLIISYTGSNCSHQVQQELSGTFAHLCQQVDITRDNLEQEIAAMNKKVEALDSLQSRAKLLRNKAGWLDSELNMFTHQYLQPSR		2
Mfn2^C390F with a C-terminal 3xFLAG tag (natural protein, UniProt Q80U63 1-757, looked up) MSLLFSRCNSIVTVKKDKRHMAEVNASPLKHFVTAKKKINGIFEQLGAYIQESASFLEDTHRNTELDPVTTEEQVLDVKGYLSKVRGISEVLARRHMKVAFFGRTSNGKSTVINAMLWDKVLPSGIGHTTNCFLRVGGTDGHEAFLLTEGSEEKKSVKTVNQLAHALHQDEQLHAGSMVSVMWPNSKCPLLKDDLVLMDSPGIDVTTELDSWIDKFCLDADVFVLVANSESTLMQTEKQFFHKVSERLSRPNIFILNNRWDASASEPEYMEEVRRQHMERCTSFLVDELGVVDRAQAGDRIFFVSAKEVLSARVQKAQGMPEGGGALAEGFQVRMFEFQNFERQFEECISQSAVKTKFEQHTVRAKQIAEAVRLIMDSLHIAAQEQRVYFLEMREERQDRLRFIDKQLELLAQDYKLRIKQITEEVERQVSTAMAEEIRRLSVLVDEYQMDFHPSPVVLKVYKNELHRHIEEGLGRNLSDRCSTAIASSLQTMQQDMIDGLKPLLPVSMRNQIDMLVPRQCFSLSYDLNCDKLCADFQEDIEFHFSLGWTMLVNRFLGPKNSRRALLGYSDQVQRPLPLTPANPSMPPLPQSSLTQEELMVSMVTGLASLTSRTSMGILVVGGVVWKAVGWRLIALSFGLYGLLYVYERLTWTTKAKERAFKRQFVEYASEKLQLIISYTGSNCSHQVQQELSGTFAHLCQQVDITRDNLEQEIAAMNKKVEALDSLQSRAKLLRNKAGWLDSELNMFTHQYLQPSR		2

— article doi:10.1101/651877 (bioRxiv, 2019)
